1 protein from PMC7542363 can be followed below.

This data set can be described thus: overnight CpaA digestion, SDS-PAGE. The conditions noted are these: glycan changed form; control: untreated fetuin.

B1: fetuin (alpha-2-HS-glycoprotein): asialofetuin (protein)
parent chain: MKSFVLLFCLAQLWGCHSIPLDPVAGYKEPACDDPDTEQAALAAVDYINKHLPRGYKHTLNQIDSVKVWPRRPTGEVYDIEIDTLETTCHVLDPTPLANCSVRQQTQHAVEGDCDIHVLKQDGQFSVLFTKCDSSPDSAEDVRKLCPDCPLLAPLNDSRVVHAVEVALATFNAESNGSYLQLVEISRAQFVPLPVSVSVEFAVAATDCIAKEVVDPTKCNLLAEKQYGFCKGSVIQKALGGEDVRVTCTLFQTQPVIPQPQPDGAEAEAPSAVPDAAGPTPSAAGPPVASVVVGPSVVAVPLPLHRAHYDLRHTFSGVASVESSSGEAFHVGKTPIVGQPSIPGGPVRLCPGRIRYFKI
Turning to B1, the “other: proteolytic processing” value is given as “no change”.
